{
  "source": "patent US20210155689A1",
  "about": "(SHANGHAI PHARMAEXPLORER, published 2021)",
  "binders": {"B1": {"name": "405B8H3 (mouse antibody purified from hybridoma) (antibody, V domains shown)", "VH": "QVQLQQSGAELVRPGASVTLSCKASGYTFTDYEMHWVKQTPVHGLEWIGATDPETGNSAYNQKFKGKAIMTADKSSSTAYMELRSLTSEDSAVYYCISTGWNDWGQGTSLTVSS", "VL": "DIKMTQSPSSMYASLGERVTITCKASQDINSYLSWFQQKPGKSPKTLIYRADRLLDGVPSRFSGSGSGQDYSLTISSLEYGDMGIYYCLQYDEFPYTFGGGTKLEIK", "notes": "also called mAb103-405B8H3; 405B81-13"}, "B2": {"name": "105F1E10 (mouse antibody purified from hybridoma) (antibody, V domains shown)", "VH": "EVQLQQSGPELVKPGASVKMSCRASGYTFTDFKMHWMKQSHGKSLEWIGYIAPNNGGTAYNQKFRGKATLTVNESSNTAYMELRSLTSEDSAVYYCVDWDDVDYWGQGTTLTVSS", "VL": "B1 VL with P40S, D52N, L55V, G81E, D92V, Y96L, G100A, I106L", "notes": "also called mAb009-105F1E10"}, "B3": {"name": "409B11E12 (mouse antibody purified from hybridoma) (antibody, V domains shown)", "VH": "B1 VH with P41T, G56S, N57Y, M70L, S98A", "VL": "B1 VL with I2L, D52N, G81E", "notes": "also called mAb104-409B11E12"}, "B4": {"name": "409D4E10 (mouse antibody purified from hybridoma) (antibody, V domains shown)", "VH": "B1 VH with Y27N, G56D, S58T, M70L, A72T, S98T, T99S", "VL": "B1 VL with D52N, G81E, D92N", "notes": "also called mAb112-409D4E10"}, "B5": {"name": "556F6B8 (mouse antibody purified from hybridoma) (antibody, V domains shown)", "VH": "RVQLKQSGPGLVQPSQSLSITCTVSGFSLIKYGVHWVRQSPGEGLEWLGVIWRGGITDYNAAFMSRLSITKDNSKSQVFFKMNSLQADDTAIYYCAKWDGPLAMDYWGQGTSVTVSS", "VL": "DIVMTQSHKFLSTSVGDRVSITCKASQDVGTTVAWYQQKPGQSPKLLIYWASTRHTGVPDRFTGSGSGTDFTLTISNVQSEDLADYFCQQYSSYPYTFGGGTKLEIK", "notes": "also called mAb123-556F6B8"}, "B6": {"name": "105F1E10 (LAG-3 mouse-human chimeric antibody) (antibody, V domains shown)", "VH": "B2 VH", "VL": "B1 VL with P40S, D52N, L55V, G81E, D92V, Y96L, G100A, I106L"}, "B7": {"name": "405B8H3 (LAG-3 mouse-human chimeric antibody) (antibody, V domains shown)", "VH": "B1 VH", "VL": "B1 VL", "notes": "also called mouse-human chimeric antibody 405B8H3"}, "B8": {"name": "409B11E12 (LAG-3 mouse-human chimeric antibody) (antibody, V domains shown)", "VH": "B1 VH with P41T, G56S, N57Y, M70L, S98A", "VL": "B1 VL with I2L, D52N, G81E"}, "B9": {"name": "409D4E10 (LAG-3 mouse-human chimeric antibody) (antibody, V domains shown)", "VH": "B1 VH with Y27N, G56D, S58T, M70L, A72T, S98T, T99S", "VL": "B1 VL with D52N, G81E, D92N"}, "B10": {"name": "556F6B8 (LAG-3 mouse-human chimeric antibody) (antibody, V domains shown)", "VH": "B5 VH", "VL": "B5 VL", "notes": "also called 556F8B8"}},
  "note": "Changes are numbered by the printed parent chain.",
  "data": [
    {"biological_target": "T1, monkey LAG-3 (full length, on the cell surface) (monkey, UniProt P18627 24-525 (human entry))", "T1 construct": "also called HEK293-cLAG-3; monkey LAG-3 protein on the cell surface", "T1 chain": "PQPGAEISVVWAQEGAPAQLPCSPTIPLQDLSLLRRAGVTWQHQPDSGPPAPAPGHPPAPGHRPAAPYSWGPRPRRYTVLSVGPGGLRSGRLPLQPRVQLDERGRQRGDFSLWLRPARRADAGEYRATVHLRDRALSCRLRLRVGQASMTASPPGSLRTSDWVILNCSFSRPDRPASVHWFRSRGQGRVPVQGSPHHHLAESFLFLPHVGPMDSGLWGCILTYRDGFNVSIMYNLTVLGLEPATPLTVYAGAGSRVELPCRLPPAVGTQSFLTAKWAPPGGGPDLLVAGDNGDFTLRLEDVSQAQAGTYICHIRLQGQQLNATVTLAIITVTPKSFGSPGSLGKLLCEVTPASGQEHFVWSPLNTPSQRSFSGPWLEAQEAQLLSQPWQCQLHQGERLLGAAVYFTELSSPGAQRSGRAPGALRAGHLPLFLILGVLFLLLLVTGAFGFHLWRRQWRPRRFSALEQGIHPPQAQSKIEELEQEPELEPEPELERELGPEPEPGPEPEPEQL", "experiment": "FACS, HEK293-cLAG-3; 200.000 nM", "text": "The pIRES plasmid with the monkey-derived full-length gene was transfected into the HEK293 cell line to construct a HEK293 stable cell line containing monkey LAG-3 (herein referred to as HEK293-cLAG-3 stable cell line). The HEK293-hLAG-3 stable cell line and HEK293-cLAG-3 stable cell line were expanded in a T-75 cell culture flask to a 90% confluence. The medium was aspirated, and the cells were washed with HBSS (Hanks' Balanced Salt Solution) 1-2 times, then treated with a enzyme-free cell dissociation fluid (Versene solution: Life technology) and the cells were collected. The cells were washed with HBSS buffer for 1-2 times. After counted, the cells were diluted with HBSS to 1-2×10⁶ cells per ml, added with 1% goat serum blocking solution, incubated on ice for 20-30 minutes, and then washed with HBSS for 2 times by centrifugation. The collected cells were suspended in the FACS buffer (HBSS+1% BSA) to 2×10⁶ cells/ml, added as 100 microliters per well to a 96-well FACS reaction plate, added with 100 microliters per well of the antibody sample to be tested, incubated on ice for 1-2 hours. The plate was washed twice with the FACS buffer by centrifugation, added with 100 microliters of fluorescent (Alexa 488)-labeled secondary antibodies per well, and incubated on ice for 0.5-1.0 hours. The plate was washed 2-3 times with FACS buffer by centrifugation, added with 100 μl fixative solution (4% Paraformaldehyde) per well to suspend the cells. 5-10 minutes later, it was washed 1-2 times with FACS buffer by centrifugation. The cells were suspended with 100 microliters of FACS buffer, FACS (FACSCalibur, BD) was used for detection and the results were analyzed.", "units": {"Mean fluorescence intensity": "MFI"}, "values": [
      {"binder": "B1", "Mean fluorescence intensity": 139},
      {"binder": "B2", "Mean fluorescence intensity": 120},
      {"binder": "B3", "Mean fluorescence intensity": 134},
      {"binder": "B4", "Mean fluorescence intensity": 153},
      {"binder": "B5", "Mean fluorescence intensity": 52.2}
    ]},
    {"biological_target": "T2, human LAG-3 protein with hFc tag (hLAG-3-hFc protein) (human, UniProt P18627 23-450)", "T2 construct": "also called immunogen 1; LAG-3 extracellular domain protein; not shown: human IgG Fc fragment (hFc) of the pCpC vector", "T2 sequence": "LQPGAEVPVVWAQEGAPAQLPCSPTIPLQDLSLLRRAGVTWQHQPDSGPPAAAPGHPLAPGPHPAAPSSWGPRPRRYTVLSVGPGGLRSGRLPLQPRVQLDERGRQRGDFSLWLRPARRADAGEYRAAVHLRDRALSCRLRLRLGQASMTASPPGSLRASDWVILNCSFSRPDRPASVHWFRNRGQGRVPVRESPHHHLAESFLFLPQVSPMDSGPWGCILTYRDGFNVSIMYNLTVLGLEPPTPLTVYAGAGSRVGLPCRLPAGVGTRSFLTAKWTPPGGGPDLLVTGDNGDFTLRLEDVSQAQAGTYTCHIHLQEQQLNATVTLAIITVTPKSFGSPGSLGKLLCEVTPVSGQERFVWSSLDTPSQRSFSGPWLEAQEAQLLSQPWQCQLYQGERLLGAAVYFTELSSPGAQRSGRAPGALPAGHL", "experiment": "FACS, blocks LAG-3-hFc binding to MHC II on Raji; 66.667 nM", "procedure": "The FACS reaction plate incubating the Raji cells was centrifuged to discard the supernatant. The above mixture was added as 100 μl per well to Raji cells and incubated on ice for 1-2 hours. The plate was washed twice with blocking solution (PBS, 2% fetal bovine serum) by centrifugation, added with 100 microliters of fluorescent (Alexa 488)-labeled secondary antibodies per well, and incubated on ice for 1.0 hours. The plate was washed 2-3 times by centrifugation with blocking solution (PBS, 2% fetal bovine serum), added with 100 microliters of PBS per well to suspend cells, and detected using FACS (FACS Calibur, BD) and the results were analyzed. Wherein, the IgG control was murine IgG, and the data in the table is the inhibition rate (%).", "units": {"Inhibition rate (%)": "%"}, "values": [
      {"binder": "B1", "Inhibition rate (%)": 94},
      {"binder": "B2", "Inhibition rate (%)": 93.6},
      {"binder": "B3", "Inhibition rate (%)": 95.5},
      {"binder": "B4", "Inhibition rate (%)": 96},
      {"binder": "B5", "Inhibition rate (%)": 95.9}
    ]},
    {"biological_target": "T2, human LAG-3 protein with hFc tag …", "experiment": "ELISA, hLAG-3-hFc coated; 66.6670 nM", "procedure": "The plate was sealed with plastic film and incubated overnight at 4° C. The plate was washed 2 times with the plate washing solution (PBS+0.01% Tween20) on the next day, and added with the blocking solution (PBS+0.01% Tween20+1% BSA) and blocked at room temperature for 1-2 hours. The blocking solution was poured out, and the plate was added with 50-100 μl of the antibody sample to be tested to each well, incubated at 37° C. for 1-2 hours, and washed 2-3 times with a plate washing solution (PBS+0.01% Tween20). HRP (horseradish peroxidase) labeled secondary antibody was added, and the plate was incubated at 37° C. for 1-2 hours, and washed 2-3 times with a plate washing solution (PBS+0.01% Tween20). 100 μl of TMB substrate was added to each well. After incubated at room temperature for 15-30 minutes, the plate was added with 100 μl of stop solution (1.0N HCl) to each well.", "units": {"OD450": "OD450"}, "values": [
      {"binder": "B6", "OD450": 3.6},
      {"binder": "B7", "OD450": 3.57},
      {"binder": "B8", "OD450": 3.59},
      {"binder": "B9", "OD450": 3.73},
      {"binder": "B10", "OD450": 3.69}
    ]}
  ]
}
